Experimental data taken from patent US20250115680A1 (PROFOUNDBIO US, published 2025).

What was measured:
[1] = target: T1, human PTK7 on the surface of PTK7-expressing tumor cell lines (human, UniProt Q13308 31-1070); assay: flow cytometry on MDA-MB-453 cells, PE anti-human Fc detection, MFI(PE)
T1 construct: whole, on cells
T1 sequence (looked up): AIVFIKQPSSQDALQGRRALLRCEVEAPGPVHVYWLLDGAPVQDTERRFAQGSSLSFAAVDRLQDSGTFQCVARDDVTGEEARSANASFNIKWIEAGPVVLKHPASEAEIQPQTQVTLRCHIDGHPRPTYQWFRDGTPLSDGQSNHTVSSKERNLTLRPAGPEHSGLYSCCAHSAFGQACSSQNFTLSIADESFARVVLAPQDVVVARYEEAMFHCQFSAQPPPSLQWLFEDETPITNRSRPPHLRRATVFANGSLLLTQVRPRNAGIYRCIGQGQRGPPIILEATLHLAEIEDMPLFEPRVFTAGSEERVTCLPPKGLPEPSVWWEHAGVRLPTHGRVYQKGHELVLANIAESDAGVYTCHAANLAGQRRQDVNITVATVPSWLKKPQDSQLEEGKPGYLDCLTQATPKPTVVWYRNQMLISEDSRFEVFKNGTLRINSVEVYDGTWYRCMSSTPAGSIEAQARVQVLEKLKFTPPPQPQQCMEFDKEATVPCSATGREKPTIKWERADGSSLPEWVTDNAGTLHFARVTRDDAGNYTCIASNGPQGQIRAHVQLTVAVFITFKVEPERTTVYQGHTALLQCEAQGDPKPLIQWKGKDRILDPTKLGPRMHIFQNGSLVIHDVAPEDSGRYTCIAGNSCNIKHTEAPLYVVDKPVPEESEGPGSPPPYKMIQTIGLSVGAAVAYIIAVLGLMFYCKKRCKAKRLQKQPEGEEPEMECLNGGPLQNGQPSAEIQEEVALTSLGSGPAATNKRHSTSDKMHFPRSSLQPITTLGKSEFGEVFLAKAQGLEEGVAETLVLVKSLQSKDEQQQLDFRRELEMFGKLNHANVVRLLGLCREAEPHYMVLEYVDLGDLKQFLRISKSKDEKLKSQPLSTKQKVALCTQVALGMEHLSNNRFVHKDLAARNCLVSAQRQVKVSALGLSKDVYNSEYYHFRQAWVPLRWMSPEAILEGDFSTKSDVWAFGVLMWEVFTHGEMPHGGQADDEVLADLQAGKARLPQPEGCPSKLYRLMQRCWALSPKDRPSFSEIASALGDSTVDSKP

[2] = target: T1, human PTK7 on the surface of …; assay: flow cytometry on MDA-MB-468 cells, PE anti-human Fc detection, MFI(PE)
[3] = target: T2, cynomolgus PTK-7 recombinant protein (cynomolgus monkey, UniProt A0A2K5VNI5 39-712); assay: ELISA, plate-coated cynomolgus PTK7 protein, anti-human Fc-HRP detection
T2 construct: also called cynomolgus monkey PTK7 protein; cyano PTK7
T2 sequence: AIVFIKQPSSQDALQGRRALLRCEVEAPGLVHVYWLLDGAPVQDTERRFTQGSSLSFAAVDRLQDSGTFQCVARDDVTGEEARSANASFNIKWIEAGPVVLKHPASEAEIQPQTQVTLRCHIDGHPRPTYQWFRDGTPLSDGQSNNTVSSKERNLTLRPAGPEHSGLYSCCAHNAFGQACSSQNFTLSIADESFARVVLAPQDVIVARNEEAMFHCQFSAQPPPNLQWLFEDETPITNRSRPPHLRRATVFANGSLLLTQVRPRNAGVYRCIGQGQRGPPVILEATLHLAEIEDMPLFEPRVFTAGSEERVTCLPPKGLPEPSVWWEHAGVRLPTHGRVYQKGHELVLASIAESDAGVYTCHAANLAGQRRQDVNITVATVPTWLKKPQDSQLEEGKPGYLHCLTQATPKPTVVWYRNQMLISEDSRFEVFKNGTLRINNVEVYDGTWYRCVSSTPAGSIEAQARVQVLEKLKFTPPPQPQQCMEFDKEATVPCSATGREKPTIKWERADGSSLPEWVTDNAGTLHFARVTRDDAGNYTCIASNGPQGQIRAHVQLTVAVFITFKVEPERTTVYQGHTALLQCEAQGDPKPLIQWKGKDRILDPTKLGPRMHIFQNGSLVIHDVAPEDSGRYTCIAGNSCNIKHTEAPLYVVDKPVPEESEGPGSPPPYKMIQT
Experimental: Binding specificity property was tested by ELISA according to a standard protocol. Specifically, 96-well micro-plates were coated with 2 μg/mL human, cynomolgus, mouse, and rat PTK-7 recombinant protein in PBS 100 μL per well, incubated overnight at 4° C. Plates were washed twice by TBS+0.5% Tween20. 200 μL of blocking buffer (2% BSA in PBS) was added to each well and incubated at 37° C. for 2 hours. Plates were washed using the buffer mentioned above. Serially diluted antibodies were added to the ELISA plate with 100 μL per well and incubated for 1 hour at room temperature. Then plates were washed for 3 times. After washing, HRP conjugated anti-human Fc antibody solution (abcam, ab98624, diluted with blocking buffer) was added to the plate with 100 μl per well. The plates were incubated at room temperature for 1 hour and then washed for 3 times. Then TMB solution was added to plates with 100 μl per well, placed at room temperature for 5-15 mins, then the stop solution (2M H₂SO₄) was added with 50 μl per well. Finally, the result was measured by absorbance at A₄₅₀ and A₆₃₀.

[4] = target: T1, human PTK7 on the surface of …; assay: flow cytometry on MDA-MB-231 cells, PE anti-human Fc detection, MFI(PE)

B1: humanized antibody 2C8 (antibody, V domains shown)
VH: QIQLVQSGAEVKKPGASVKVSCKASGYTFTTYGMSWVRQAPGQGLEWMGWINTHSGVPTYVDEFKGRVTMTLDTSTSTAYMELSSLRSEDTAVYYCARSPFDYGSRGAWFVYWGQGTTVTVSS
VL: DVVMTQSPDSLAVSLGERATINCRSSQSIVHNSGDTYLEWYQQKPGQPPKLLIYKVSNRFPGVPDRFSGSGSGTDFTLTISSLQAEDLAVYYCFQGSHVPWTFGGGTKVEIK
notes: Only variable regions are tied to 2C8 by name; It was detected with anti-human Fc
An EC50 [1] of 339 pM, an EC50 [2] of 481 pM and an EC50 [3] of 2610 pM were found for B1 in this work. For the same binder, the EC50 [4] was 423 pM.

B2: humanized antibody 13C4 (antibody, V domains shown)
VH: QVQLVESGGGLVKPGGSLRLSCAASGFAFSTYDMFWIRQAPGKGLEWVSTISSGGGYTYYPGSVKGRFTISRDNAKNSLYLQMNSLRAEDTAVYYCVRPLLRDSYFYFDVWGQGTMVTVSS
VL: EIVMTQSPATLSVSPGERATLSCRASSSVSSSYLHWYQQKPGQAPRLLIFRTSNLASGIPARFSGSGSGTEYTLTISSLQSEDAAVYYCQQYSGYPLTFGQGTKLEIK
notes: Only variable regions are tied to 13C4; It was detected with anti-human Fc
An EC50 [1] of 623 pM, an EC50 [2] of 558 pM and an EC50 [3] of 1140 pM were found for B2 in this work. The EC50 [4] was 828 pM.

B3: humanized antibody 2C5 (antibody, V domains shown)
VH: QVQLVQSGAEVKKPGASVKVSCKASGYTFTDYYINWVRQAPGQGLEWMGDINPYSGGPVYNQKFMARVTMTVDKSINTAYMELSRLRSDDTAVYYCARGDYYGSNYNYWGQGTLVTVSS
VL: EIVLTQSPATLSVSPGERATLSCRASQNIGTSIHWYQQKPGQAPRLLIKFASESISGIPARFSGSGSGTEFTLTISSLQSEDIAVYYCQQSNNWPYTFGQGTKLEIK
notes: Only variable regions are tied to 2C5; It was detected with anti-human Fc, so it has a human Fc
An EC50 [1] of 488 pM, an EC50 [2] of 543 pM and an EC50 [3] of 1660 pM were found for B3 in this work. For the same binder, the EC50 [4] was 506 pM.
